One block for each binder: values may come before it. Numbered stars: 1 amine (or outer) side, 2 acyl side, 3 side chain; on linkers, the order of the positions; unused ones are H or OH. Bridge positions count the residues as written; N and C are the ends. Square brackets hold non-standard residues; d marks the D form. Ends that are not written are not given here. * marks the point of attachment. DOTA = O=C(O)CN1CCN(CC(=O)O)CCN(CC(=O)*)CCN(CC(=O)O)CC1; Phe(4-Br) = N[C@@H](Cc1ccc(Br)cc1)C(=O)O; 1Nal = N[C@@H](Cc1cccc2ccccc12)C(=O)O; TBMB = c1c(C[*:1])cc(C[*:3])cc1C[*:2]; Tle = CC(C)(C)[C@H](N)C(=O)O; βAla = NCCC(=O)O; Sar = CNCC(=O)O
Key:
[1] = target: T1, human MT1-MMP hemopexin domain (hemopexin-like repeats, residues Cys319-Gly511), N-terminally His6-tagged … (human, UniProt P50281 319-511); assay: FP competition vs MT1-MMP hemopexin domain (tracer not given)
T1 construct: range 319-511; Secreted from HEK293 cells; also called hemopexin protein; MT1-MMP (=MMP-14); not shown: N-terminal His6 tag from pEXPR-IBA42 vector
Description: (§1) Subsequently, the non-fluorescent competitor bicyclic peptide (usually just the bicycle core sequence) is titrated, such that it displaces the fluorescent tracer from the target protein. The displacement of the tracer is measured and associated with a drop in fluorescence polarisation. The drop in fluorescence polarisation is proportional to the fraction of target protein bound with the non-fluorescent titrant, and thus is a measure of the affinity of titrant to target protein.

[2] = target: T2, dog MT1-MMP hemopexin domain (dog); assay: FP competition, dog hemopexin domain
T2 construct: domain: hemopexin domain
Description: as §1

[3] = target: T1, human MT1-MMP hemopexin domain …; assay: Kd, method not named in table (FP competition by the methods)

- Kd [1]: 0.8 nM
B1: 17-69-07-N252, Ac-(17-69-07) D-Ala1 1Nal4 D-Ala5 4BrPhe9 tBuGly11 (peptide)
chain: Ac-C[dA]NE[1Nal][dA]CEDF[Phe(4-Br)]D[Tle]C-NH2
modifications: linker 1-7-14 via TBMB
SMILES: CC(=O)N[C@H]1CSCc2cc3cc(c2)CSC[C@H](NC(=O)[C@@H](C)NC(=O)[C@H](Cc2cccc4ccccc24)NC(=O)[C@H](CCC(=O)O)NC(=O)[C@H](CC(N)=O)NC(=O)[C@@H](C)NC1=O)C(=O)N[C@@H](CCC(=O)O)C(=O)N[C@@H](CC(=O)O)C(=O)N[C@@H](Cc1ccccc1)C(=O)N[C@@H](Cc1ccc(Br)cc1)C(=O)N[C@@H](CC(=O)O)C(=O)N[C@@H](C(C)(C)C)C(=O)N[C@H](C(N)=O)CSC3

- Kd [3]: 0.5 nM
B3: 17-69-07-N248, DOTA-A-(17-69-07) D-Ala1 1Nal4 D-Ala5 4BrPhe9 tBuGly11 (peptide)
chain: {DOTA}-AC[dA]NE[1Nal][dA]CEDF[Phe(4-Br)]D[Tle]C-NH2
modifications: linker 2-8-15 via TBMB
SMILES: C[C@H](NC(=O)CN1CCN(CC(=O)O)CCN(CC(=O)O)CCN(CC(=O)O)CC1)C(=O)N[C@H]1CSCc2cc3cc(c2)CSC[C@H](NC(=O)[C@@H](C)NC(=O)[C@H](Cc2cccc4ccccc24)NC(=O)[C@H](CCC(=O)O)NC(=O)[C@H](CC(N)=O)NC(=O)[C@@H](C)NC1=O)C(=O)N[C@@H](CCC(=O)O)C(=O)N[C@@H](CC(=O)O)C(=O)N[C@@H](Cc1ccccc1)C(=O)N[C@@H](Cc1ccc(Br)cc1)C(=O)N[C@@H](CC(=O)O)C(=O)N[C@@H](C(C)(C)C)C(=O)N[C@H](C(N)=O)CSC3

- Kd [2]: 0.9 nM
Binder: G[Sar][Sar][Sar][Sar][Sar][Sar][Sar][Sar][Sar][Sar]ACYNEFGCEDFYDIC-NH2 (linker 13-19-26 via TBMB) [17-69-07-N219, G-Sar10-A-(17-69-07) (non-stabilised with spacer)]

The next lines start with the binder.

B2: 17-69-07-N241, bAla-Sar10-A-(17-69-07) D-Ala1 1Nal4 D-Ala5 tBuGly11 (peptide)
peptide: [βAla][Sar][Sar][Sar][Sar][Sar][Sar][Sar][Sar][Sar][Sar]AC[dA]NE[1Nal][dA]CEDFYD[Tle]C-NH2
modifications: linker 13-19-26 via TBMB; N-terminus assumed
SMILES: C[C@H](NC(=O)CN(C)C(=O)CN(C)C(=O)CN(C)C(=O)CN(C)C(=O)CN(C)C(=O)CN(C)C(=O)CN(C)C(=O)CN(C)C(=O)CN(C)C(=O)CN(C)C(=O)CCN)C(=O)N[C@H]1CSCc2cc3cc(c2)CSC[C@H](NC(=O)[C@@H](C)NC(=O)[C@H](Cc2cccc4ccccc24)NC(=O)[C@H](CCC(=O)O)NC(=O)[C@H](CC(N)=O)NC(=O)[C@@H](C)NC1=O)C(=O)N[C@@H](CCC(=O)O)C(=O)N[C@@H](CC(=O)O)C(=O)N[C@@H](Cc1ccccc1)C(=O)N[C@@H](Cc1ccc(O)cc1)C(=O)N[C@@H](CC(=O)O)C(=O)N[C@@H](C(C)(C)C)C(=O)N[C@H](C(N)=O)CSC3
notes: also called βAla-Sar10-A-C(D-Ala)NE(1Nal)(D-Ala)CEDFYD(tBuGly)C
- Kd [2]: 1.4 nM

Binder: Ac-CYNEFGCEDFYD[Tle]C-NH2 (linker 1-7-14 via TBMB) [17-69-07-N100, Ac-(17-69-07) tBuGly11]
- Kd [1]: 1.56 nM
